Measured values published in the nanobody polyreactivity screen of Harvey et al. (2022).

Assay: yeast display, Sf9 membrane polyspecificity reagent, FACS + sequencing; frameworks hold sequencing errors
Procedure, shortened: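 Sorting gates, low and high (top ~1%), were placed on anti-HA fluorescence to track expression and on streptavidin fluorescence to track reagent binding. A clone's polyreactivity label is taken from the gate it came out of. The reagent was 10% biotinylated, detergent-solubilized Sf9 membrane, applied for 1 hour at 4 °C to galactose-induced yeast display cells.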

Sequence	polyreactivity (PSR sort gate)
QVQLVESGGGLVQAGGSLRLSCAASGSTYARYAMGWYRQAPGKEREFVAAISASGGRTYYADSVKGRFTISRDNAKNTVYLQMNSLKPEDTPVDYCAVRVYAKYFAKYDYWGQGTQVTVSS	high polyreactivity
QVQLVESGGGLVQAGGSLRLSCAASGFIFPYYTMGWYGQARGKERELVAAISYSGGSTYYADSVKGRFTISRDKAKNTVYLQMNSLKPEDTAVYYCNADPPLIVYKVWFLLDYWGQGTQVTVTS	high polyreactivity
QVQLVESGGGFVHAGGSLRLSCAASGLIFGKYAMGWYRQAPGKERELVAAITSSGGGTYYADSVKGRFTISRDNAKNTVSLQMNSVKADDTAVYYCATGPDPKYDYRGQGTQVTVSS	high polyreactivity
QVQLVESGGGLVQARGILRLSCAASGNIFGRYAMGWSRQAPGKERELVAAITRSCGRTYYADSVKGRFTISRHHAKNTVYLQRNSLKPEDTAGYYCAAVGGRDVYPVVDRDYWGQGTQLTVSS	low polyreactivity
QVQLVESGGGLVQAGGSLSLTCAASVLTLTGYPMGWYRPAPGKERELVAAISSRGGSTYYADSVKGRFTISRDNAKNTVYLQMNSLKREDTAFYYCDARASSGARGLDYWGQGTQVTVSS	high polyreactivity
QVQLVESGGGLVQAGGSLRLSCAASGSIIYIYAMGWYRQAPGKERELVAAISSGDRTNYADSVKGRFTISRDNAKNTVYLQMNSLKPEDTAVYYCAARGRGSAAKYNYWGQGTQVTVSS	high polyreactivity
QVQLVDSGGGLVQAGGSLPLSCAASGSILLPYAMGWYRQAPGKERELVAALSQRGGSTYYADSVKGRFTISRDNAKNTVYLQMNSLKPEDTAVYYCNAVGGEHTPSQAFAGYDYWGQGTQVTVSS	low polyreactivity
QVQLVESGGGLVQAGGSLRLSCAASGSIFYQNAMGWYRQAPGKERELVAAITSDGSTYYADSVKGRFTISRDNAKNTVYLQMNSLKPEDNAVYYCAAEYYVHRYDYWGQGTQVTVSS	low polyreactivity
QVQLVESGGGLVQAGGSLRLSCAASGITFVANAMGWYRQAPGKERELVAAISYSGASTYADSVKGRFTISRDNAKNTVYLQMNSLKPEDTAVYYCAKDGPYTYGREIYVYWGQGTLVTVSS	low polyreactivity
QVQLVESGGGLVQAGGSLRLSCAASGRIFDGNTMGWYRQAPGKERELVAAITYSGGRTSYADSVKGRFTISRDNAKNTVYLQMNSLKPEDTAVYYCNARVVTGSWYEGYYWGQGTQVTVSS	low polyreactivity
QVQLVESGGGLVQAGGSLRLSCAASGSIYNINAMGWYRQAPGKERELVATITSGGTTSYADSVKGRFTISRDNAKNTVYLQMNSLKPEDTAVYYCNAEIYPIVKAGRQHPRRYDYWGQGTQVTVSS	low polyreactivity
QVQLVESGGGLVQAGGSLRLSCAASGYIFRSYAMGWYRQAPGKERELVATISWIGGGTSYADSVKGRFTISRDNAKNTVYLQMNSLKPEDTAVYYCAAGPWAYGRRHAYYSRSFDYWGQGTQVTVSS	high polyreactivity
QVQLVESGGGLVQAGGILRLSCAASGSIFDFYAMGWYRQAPGKERELVAAISGSGGSTYYADSVKGRFTISRDNAKNTVYLQMNSLKPEDTAVYYCSYYYWGQGTQVTVSS	low polyreactivity
QVQLVESGGGLVQAGGSLRLSCAASGSIFYYYAMGWYRPAPGKEWELVAAISSTVSTNYADSVKGRFTISRDNAKNTVYLQMNSLKPEDTAVYYCAAAQRVNHVWYDYWGQGTQVTVSS	low polyreactivity
QVQLVESGGGLVQAGGSLRLTCAASGRIFNIYAMGWYRQAPGKERELVAAISVSGTRTYYADSVKGRFTISRDNAKNTVYLHMNSLKPEDTAVYYCAADSYGGVWTEHMYYWGQGTQVTVSS	low polyreactivity
QVQLVESGGGLVQAGGSLRLSCAASGYTFRKYAMGWYRQAPGKERELVAAITYTGGSTYYADSVKGRFTISRDNAKNTVYLQMNSLKPEDTAVYYCARRYRWGEYGYWGQGTQVTVSS	high polyreactivity

Sequence	polyreactivity (PSR sort gate)
QVQLVESGGGLVQAGGSLRLSCAASGIIFDTYAMGWYRQAPGKERELVAAISRSGDTTYYADSVKGRFTISRDNAKNTVYLQMNSLKPEDTAVYYCYARQSRWDKYDYWGQGTQVTVSS	high polyreactivity
QVQLVESGGGLVQAGGSLRLSCAASGYTIYYYAMGWYRQAPGKERELVAVITSRGPRTYYADSVKGRFTISRDNAKNTVYLQMNSLKPEDTAVYYCNKARGVAYDWGQGTQVTVSS	high polyreactivity
QVQLVESGGGLVQAGGSLRLSCAASGFTLDDNGMGWYRPAPGKECELVESITWSGGSTDYADSVKGRFTISRDTAKNTVYLQMNSLKPEDTAVYSCNVGDPIGGFLSYWGGDYWGQGTQVTVSS	low polyreactivity
QVQLVESGGGLLQAGGSLRLSCAASGRIFPYYAMGWYRQAPGKERVLLAAISQSGGRTYYADSVKGRFTISRDNAKNTVFLQMNSLKPEDTAVYYCNADTYSSGYDYWGQGTQVTVSS	high polyreactivity
QVQLVESGGGLVQAGGSLRLSCAASGSTQRGYARGWYRQAPGKERELVASISRRGGSTYYADSVKGRFTISRDNAKNTVYLQMNSLKPEDTAVDYCAATGRRGYGYGYWGQGTQVTVSS	high polyreactivity
QVQLVESGGGLVQAGGSLRLSCAASGRTFFYNAMGWYRQAPGKERELVAAISKNGGNTYYADSVKGRFTISRDNAKNTVYLQMNSLKPEDTAVYYCAARQSRTGPDRNDYWGQGTQVTVSS	high polyreactivity
QVQLVESGGGLVQAGGSLRLSCAASGSIFGYYAMGWYSQAPGKERELVAAFTASGGSTYYADSVKGRFTISRDNAKNTVYFQMNSLKPEDTAVYYCAAGTHTDYGRYYYWGQGTQVTVSS	low polyreactivity
QVQLVESGGCLVQEGGSLRLSCAASGSIFHDYIMGWYRQAPGKEMELVAAMSSGGSTYYADSVKGRFTISRDNAKNTVYLQMNSLKPEDTEVYYCAAKSRSQVYPHYYWGQGTQVTVSS	low polyreactivity
QVQLVESGGGLLQAGGSLRLICAASGSIFGANTMGWYRPAPGKERELVAGITSGARTYYADSVKGRFTMSRDNAKNTVYLQMNSLQPEDTAVYYCAANYAWRRYGYWGNGTQVTVSS	high polyreactivity
QVQLVESVGVLVQEGGSLRLSSAASGGSLPRYAMGWYRQAPGKEMELVAVITRGGSTYYADSVKGRFTISRDNAKNTVYLQMIRLIPEDTAVYYFAKYRYQTGIFYYWGQGTQVTVSS	high polyreactivity
QVQLVESGGGLVQAGGSLRLSCAASGSTFWEYAMGWYRQAPGKERELVAAITWSTGSTYYADSVKGRFTISRDNAKNTVYLQMNSLKPEDTAVYYCNVDWGYFYTTQGFDYWGQGTQVTVSS	high polyreactivity
QVQLVESGGGLVQAGGSLRLSCAASGLTFSRNGMGWYRQAAGKERELVAAISTSGDSTDYADSVKGRFTISRDYAKNTVYLQMNSLKPEDTAVYYCNRDFSLVVHYNFDYWGQGTQVTVSS	low polyreactivity
QVQLVESGGGLVQAGGSLRLSCAASGSTCGTNAMGWYRQAPGKERELVAAITWSGGRTYYADSVKGRFTISRDNAKNTVYLQMISLKPEDTAVYYCNAGYSYRRRNGYGYDYWGQGTQVTVSS	high polyreactivity
QVQLVESGGGLVQAGGSLRLSCAASGSTFYRYAMGWYRQAPGKERELVAGISSSGGSTYYADSVKGRFTISRDNAKNTVYLQMNSLKPEDTAVYYCAAVGQWGYGYWGQGTQVTVSS	high polyreactivity
QVQLVESGGGLVQAGGSLRLSCAASGTFAVYTMGWYRQAPGKERELVAAISSGGSTYYADSVKGRFTISRDNAKNTVYLQMNSLKPEDTAVYYCAKVPGRYRADRYWDHYSHDYWGQGTQVTVSS	high polyreactivity
QVQLVESGGGLDQAGGSLRLSCAASGSIFVIYAMGWYRQAPGKERELVAAIRFSTGSTYYADSVKGRFTISRDNAKNTVYLQMNSLKPEDTAVYYCAARTFKYGSYAYEYWGQGTQVTVSS	high polyreactivity
